Assay results as given in patent US7361348B2, “Immunogenic glycopeptides, screening, preparation and uses” (priority 2000, dated 2008).
Entries after “also recorded” stand apart in the source; their conditions may differ. Like-named read-outs stand apart in the source and are kept apart here.

What was measured:
[1] = test system: guinea pigs immunized with heat-inactivated BCG; assay type: in vivo, guinea pig
[2] = test system: guinea pigs immunized with live BCG; assay type: in vivo, guinea pig; conditions: for loss of antigenic activity during digestion with α-mannosidase: 0.2 μg intradermally
T lymphocytes = experiment: in vitro lymphocyte proliferation assay; assay type: cell-based
Source text: The conditions of the assay are those described in Horn et al., mentioned above.

[3] = test system: guinea pigs immunized with the plasmids pAG831 or pAG832; assay type: in vivo, guinea pig; conditions: antigen 0.2 μg in 100 μl
[4] = test system: guinea pigs immunized with the Apa fusion peptide; assay type: in vivo, guinea pig
[5] = test system: specific CD4+ T lymphocytes; conditions: cited from earlier work
[6] = guinea pigs immunized with live BCG

Molecule: Lip: Mannosylated glycopeptide purified from M. tuberculosis culture, derived from the protein encoded by the Rv1796 gene (SEQ ID NO:3) (TIPTTETPPPPQTVTLSPVPPQTVTVIPAPPPEEG; not fully specified; mannosylated; MOD_RES (4)..(4) glycosidic bond to a di- or a tri-saccharide; listed as Mycobacterium tuberculosis)
- delayed-type hypersensitivity reaction (in words) [1]: relatively inactive
- delayed-type hypersensitivity of the peptide treated with subtilisin ([2]; 0.02 μg in 0.1 ml, live BCG): abolishes the antigenic activity; also recorded: negative
- delayed-type hypersensitivity of the peptide treated with α-mannosidase ([2]; 0.02 μg in 0.1 ml, live BCG): negative
- antigenic activity after deglycosylation ([2]; after α-mannosidase 24 h at 37° C., live BCG): less than 30 000 TU/mg
- activity relative to the standard purified proteins from M. tuberculosis (PPD) ([2]; at an equivalent amount of proteins, Lip 0.02 μg vs PPD 0.25 μg in 0.1 ml): at least 10 times
- antigenic activity [2, 6]: 1 000 000 TU/mg
- delayed-type hypersensitivity reaction (in words) [2, 6]: very active
- loss of the antigenic activity by action of α-mannosidase ([2]; α-mannosidase 24 h at 37° C.): more than 95%
- T-lymphocyte proliferation (T lymphocytes; T lymphocytes treated with an antibody directed against CD4 molecules): marginal
- T-lymphocyte proliferation (T lymphocytes; glycopeptide treated with α-mannosidase): marginal
- T-lymphocyte proliferation (T lymphocytes; native Lip): dependent on the peptide concentration

B1: Native Apa: Mannosylated protein secreted by M. tuberculosis, product of the Rv 1860 gene, purified from culture supernatant (protein, UniProt P9WIR7 40-325, looked up)
Alanine and proline-rich …: DPEPAPPVPTTAASPPSTAAAPPAPATPVAPPPPAAANTPNAQPGDPNAAPPPADPNAPPPPVIAPNAPQPVRIDNPVGGFSFALPAGWVESDAAHFDYGSALLSKTTGDPPFPGQPPPVANDTRIVLGRLDQKLYASAEATDSKAAARLGSDMGEFYMPYPGTRINQETVSLDANGVSGSASYYEVKFSDPSKPNGQIWTGVIGSPAANAPDAGPPQRWFVVWLGTANNPVDKGAAKALAESIRPLVAPPPAPAPAPAEPAPAPAPAGEVAPTPTTPTPQRTLPA
modifications: native mannosylated
notes: Mannosylated protein secreted by M. tuberculosis, product of the Rv 1860 gene, purified from culture supernatant
- delayed-type hypersensitivity / CD4+ T lymphocyte response (in words) [3]: equivalent
- delayed hypersensitivity sensitization (in words) [4]: identical
- loss of antigenic activity during digestion with α-mannosidase ([2]; digestion 1 h, tuberculin titre vs PPD standard): 66%
- loss of antigenic activity during digestion with α-mannosidase ([2]; digestion 4 h (3 to 6 mannose residues remain)): 86%
- delayed-type hypersensitivity reaction (in words) [2, 6]: show a delayed-type hypersensitivity reaction only in response to the native Apa; also recorded: considerable; also recorded: only the glycosylated native Apa is antigenic
- loss of antigenicity on demannosylation ([5]; α-mannosidase, TFMS or expression in E. coli): 100 fold

B2: Deglycosylated Apa: deglycosylated Apa protein prepared as described in example 1 (α-mannosidase digestion) (protein, UniProt P9WIR7 40-325, looked up)
Alanine and proline-rich …: DPEPAPPVPTTAASPPSTAAAPPAPATPVAPPPPAAANTPNAQPGDPNAAPPPADPNAPPPPVIAPNAPQPVRIDNPVGGFSFALPAGWVESDAAHFDYGSALLSKTTGDPPFPGQPPPVANDTRIVLGRLDQKLYASAEATDSKAAARLGSDMGEFYMPYPGTRINQETVSLDANGVSGSASYYEVKFSDPSKPNGQIWTGVIGSPAANAPDAGPPQRWFVVWLGTANNPVDKGAAKALAESIRPLVAPPPAPAPAPAEPAPAPAPAGEVAPTPTTPTPQRTLPA
modifications: deglycosylated
- delayed-type hypersensitivity / CD4+ T lymphocyte response (in words) [3]: of the same strength as the responses observed with the glycosylated native antigen
- delayed hypersensitivity sensitization (in words) [4]: identical
- delayed-type hypersensitivity reaction (in words) [2, 6]: very weak or absent

B3: E. Coli recombinant Apa: deglycosylated recombinant Apa produced in E. coli (protein, UniProt P9WIR7 40-325, looked up)
Alanine and proline-rich …: DPEPAPPVPTTAASPPSTAAAPPAPATPVAPPPPAAANTPNAQPGDPNAAPPPADPNAPPPPVIAPNAPQPVRIDNPVGGFSFALPAGWVESDAAHFDYGSALLSKTTGDPPFPGQPPPVANDTRIVLGRLDQKLYASAEATDSKAAARLGSDMGEFYMPYPGTRINQETVSLDANGVSGSASYYEVKFSDPSKPNGQIWTGVIGSPAANAPDAGPPQRWFVVWLGTANNPVDKGAAKALAESIRPLVAPPPAPAPAPAEPAPAPAPAGEVAPTPTTPTPQRTLPA
modifications: non-glycosylated, produced in E. coli
- delayed-type hypersensitivity / CD4+ T lymphocyte response (in words) [3]: of the same strength as the responses observed with the glycosylated native antigen
- delayed-type hypersensitivity / CD4+ T lymphocyte response (in words) ([3]; listed as E. coli rApa): equivalent
- delayed-type hypersensitivity reaction (in words) ([2]; guinea pigs immunized with live BCG, listed as molecules produced in E. coli): very weak or absent
- delayed-type hypersensitivity reaction (in words) ([2]; guinea pigs immunized with live BCG, listed as non-glycosylated recombinant Apa produced in E. coli): no reaction or develop a greatly decreased reaction

B4: glycosylated Apa produced by Mycobacterium smegmatis: Glycosylated Apa produced by M. smegmatis, overall mannose composition slightly different from M. tuberculosis Apa (protein, UniProt P9WIR7 40-325, looked up)
Alanine and proline-rich …: DPEPAPPVPTTAASPPSTAAAPPAPATPVAPPPPAAANTPNAQPGDPNAAPPPADPNAPPPPVIAPNAPQPVRIDNPVGGFSFALPAGWVESDAAHFDYGSALLSKTTGDPPFPGQPPPVANDTRIVLGRLDQKLYASAEATDSKAAARLGSDMGEFYMPYPGTRINQETVSLDANGVSGSASYYEVKFSDPSKPNGQIWTGVIGSPAANAPDAGPPQRWFVVWLGTANNPVDKGAAKALAESIRPLVAPPPAPAPAPAEPAPAPAPAGEVAPTPTTPTPQRTLPA
modifications: glycosylated, produced in M. smegmatis
- decrease of antigenic activity versus Apa produced by M. tuberculosis [5]: approximately 10 fold
